Data set [1] concerns the molecule itself. Briefly: refolding of mixed subunits, anion exchange chromatography, SDS-PAGE densitometry; subunits from washed inclusion bodies mixed at 3:1, refolded by rapid dilution, tetramers separated on Mono Q; boiled peak samples on reducing SDS-PAGE, bands normalised for molecular weight and converted to a subunit ratio.
Data set [2] addresses Strep-Tactin-SpyCatcherΔ subunit. The description is as above. Conditions: both partners purified.

Strep-Tactin-SpyCatcherΔ subunit, sequence (chain, as listed by the source mutant): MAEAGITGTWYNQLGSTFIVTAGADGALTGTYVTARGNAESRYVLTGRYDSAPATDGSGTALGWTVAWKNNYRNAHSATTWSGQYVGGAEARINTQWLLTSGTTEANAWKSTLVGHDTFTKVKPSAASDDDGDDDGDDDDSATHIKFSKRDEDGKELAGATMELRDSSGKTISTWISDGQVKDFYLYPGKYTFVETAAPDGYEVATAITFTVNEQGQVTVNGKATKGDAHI

B1: dead streptavidin subunit (other)
chain: MAEAGITGTWYAQLGDTFIVTAGADGALTGTYEAAVGNAESRYVLTGRYDSAPATDGSGTALGWTVAWKNNYRNAHSATTWSGQYVGGAEARINTQWLLTSGTTEANAWKSTLVGHDTFTKVKPSAAS
notes: also called dead streptavidin monomer
B1: the binding result in data set [1] is “binds”. Further, the “stoichiometry N” value in data set [2] is 3.7 dead streptavidin per Strep-Tactin-SpyCatcherΔ.

Values taken from publication PMC6922461 (PLoS Biology, 2019).
